This is an account of results in the supplement of paper PMC12764529.

The nature of series [1]: folding stability dG unfold from chymotrypsin proteolysis; higher = more stable. Put shortly:
(§1)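 Digests were run with trypsin and chymotrypsin at 11 concentrations in threefold dilutions, plus a no-protease condition, on designed mini-proteins in a PA-tagged cDNA display construct. The mini-proteins were under 80 residues, had no cysteine, and were kept only when AlphaFold2 dimer inter-PAE was above 15. After sequencing, Bayesian fitting of the counts gave K50, from which unfolding free energy was derived against a sequence-predicted unfolded-state K50 and a shared folded-state K50, per protease or combined.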

A short description of series [2]: folding stability dG unfold (combined trypsin and chymotrypsin); higher = more stable. Put shortly: as §1
Series [3] can be described thus: folding stability dG unfold from trypsin proteolysis; higher = more stable. Put shortly:
as §1

± gives the half width of the 95% confidence interval.

On to “SAGGITIRGMPWEWAEEIAKTLAQEGYRLKDVEVEEDPPDGYYSVTVQQRDPETGKPKKPVTISIPPSAGGS [r16_750_TrROS]”, for which the “folding stability dG unfold” value in series [1] stood at 0.0769 ± 0.44 kcal/mol; in series [2], 0.515 ± 0.43 kcal/mol; in series [3], 0.594 ± 0.13 kcal/mol.

For the sequence “SAGGITIVWQPGYFRIEFPGNGNTVPIPIPPDDPGRTLEEFADEFIDEMSERFGIPPPEDIKIEYYDSAGGS [r8_402_TrROS]”, the “folding stability dG unfold” value in series [1] came to 1.36 ± 0.084 kcal/mol; in series [2], 1.39 ± 0.15 kcal/mol; in series [3] it was 1.31 ± 0.13 kcal/mol.

Take “SAGGIVEEAIKKLFESGIPLSEEEIKEIIEKAIKEENEKKGKKIEKIEIGEIKFNPETGYAPIKIKASAGGS [r16_365_TrMRF]”: the “folding stability dG unfold” value in series [1] is 1.44 ± 0.13 kcal/mol; in series [2], 0.856 ± 0.83 kcal/mol; in series [3] it was -0.383 ± 0.48 kcal/mol.

In the case of “SAGGIVPLPNGHWVIMAQFEVDEGQTVDDAPEFAREIAKTFGIKPTQVQVDPEKGYVNVAIKIPPGALSAGG [r13_178_TrROS]”, the “folding stability dG unfold” value in series [1] was 0.263 ± 0.35 kcal/mol; in series [2], 0.327 ± 0.25 kcal/mol; in series [3] it was 0.217 ± 0.11 kcal/mol.

With “SAGGIVVGEEGVVRITGPGEPVIIPLPENSEVVEIDVPDDGYVRITLRVDGKTVTVDFPSAPPGLTLSAGGS [r16_635_TrMRF]”, the “folding stability dG unfold” value in series [1] is 0.355 ± 0.041 kcal/mol; in series [2], 0.927 ± 0.051 kcal/mol; in series [3], 1.34 ± 0.038 kcal/mol.

Consider “SAGGIVVKVADGSYVRIVVYDPNNPVPRIETFPGGGVDDVIAAIAASPSFPNTVVYVERFDDGKPYPASAGG [r13_914_TrMRF]”, for which the “folding stability dG unfold” value turned out to be 0.664 ± 0.055 kcal/mol in series [1], 0.747 ± 0.075 kcal/mol in series [2] and 0.871 ± 0.043 kcal/mol in series [3].

“SAGGKEIEELAKKLAEELGVEVVKVEVEKVGPDTVKVTVTLKDGKKIKIEIKKKKDGSYEIKVEIEPSAGGS [r8_284_TrROS_Hall]”: the figures for the “folding stability dG unfold” value in series [1], in series [2] and in series [3] were 2.63 ± 0.22 kcal/mol, 2.97 ± 0.3 kcal/mol and 3.08 ± 0.19 kcal/mol, respectively.

As to “SAGGKEIKIEVELDEDGNLTVTITLPDGRVVRITFTPGKITVEVFDAETGELVEEKTLTADELLELLSAGGS [r8_476_TrROS_Hall]”, the “folding stability dG unfold” value in series [1] is 3.81 ± 0.13 kcal/mol; in series [2] it was 3.67 ± 0.13 kcal/mol; in series [3], 3.46 ± 0.16 kcal/mol.

On to “SAGGKEIYVVRIEVYYPSNGKVEEKEYVIEATPEEAEELAKKIAEAFKEEAGEEVEVLRVEIKVYDLSAGGS [r16_140_TrMRF]”, for which the “folding stability dG unfold” value in series [1] was 4.68 ± 0.072 kcal/mol; in series [2], 4.65 ± 0.12 kcal/mol; in series [3] it was 3.82 ± 0.22 kcal/mol.

As to “SAGGKEVKITFKAPKEEAVPKVKKAAEEYGVTVKSIDYDPETGKVTVVVDDSVPEEKVKEAFEKVLKSAGGS [r8_338_TrMRF]”, the results for the “folding stability dG unfold” value in series [1], in series [2] and in series [3] were 1.75 ± 0.082 kcal/mol, 1.75 ± 0.21 kcal/mol and 1.53 ± 0.078 kcal/mol, respectively.

In the case of “SAGGKEVVIVFPLPENFEAEIFIPDRPVVRLENGLLVAVAPENVPALIVIRNPNGEELVLPVELLDLSAGGS [r8_72_TrMRF]”, the “folding stability dG unfold” value turned out to be 1.28 ± 0.014 kcal/mol in series [1], 1.32 ± 0.084 kcal/mol in series [2] and 1.27 ± 0.037 kcal/mol in series [3].

In the case of “SAGGKEYYLVKIEIEVTPENGKKETIEIELIVDGNPEEALKKAKEIAEYLEKKGFKVEIKKIEVYPASAGGS [r16_525_TrMRF]”, the “folding stability dG unfold” value amounted to 4.55 ± 0.073 kcal/mol in series [1], 4.54 ± 0.15 kcal/mol in series [2] and 3.9 ± 0.15 kcal/mol in series [3].

Consider “SAGGKIEEVARELAKELNAVSIDFRTEGDVPSVEIRFRIPGSPLWLRVTITRDPDGNISVSIEPDPRSAGGS [r16_433_TrMRF]”, for which the “folding stability dG unfold” value in series [1] came to 4.16 ± 0.074 kcal/mol; in series [2] it was 3.75 ± 0.09 kcal/mol; in series [3] it was 2.94 ± 0.054 kcal/mol.

On to “SAGGKIKIMDIEIERHGGYYKIEIWIQVDTPDDIEDLLKAGVPNVEVERRRNPNGRLYVQAEFYIPAGSAGG [r13_506_TrROS]”, for which the “folding stability dG unfold” value in series [1] is 3.49 ± 0.17 kcal/mol; in series [2] it was 3.14 ± 0.26 kcal/mol; in series [3], 1.74 ± 0.11 kcal/mol.

With “SAGGKIKIRNPKTGLIVEVLEYNPETGKFKVKVTFPDGSVEEKEFPGSLEDLIEWLESEGFPFEVEGSAGGS [r16_748_TrMRF]”, the “folding stability dG unfold” value was determined as 3.72 ± 0.13 kcal/mol in series [1], 3.37 ± 0.16 kcal/mol in series [2] and 2.26 ± 0.13 kcal/mol in series [3].

As to “SAGGKIKKGETVKIKIEIENKNGEKKTIELEVKKEDLEKLKELIEKLKEKGFKIKKIEIKVLKKEKKSAGGS [r8_497_TrROS_Hall]”, the “folding stability dG unfold” value in series [1] amounted to 2.96 ± 0.03 kcal/mol; in series [2], 2.51 ± 0.2 kcal/mol; in series [3] it was 1.02 ± 0.13 kcal/mol.

Turning to “SAGGKIKVTVEKEENGTYRVTVEITLPDGKKITITVTVPPGVKTEEEAKKLAEEKVKELLKKLGIKPSAGGS [r8_464_TrROS_Hall]”, the results for the “folding stability dG unfold” value in series [1], in series [2] and in series [3] were 4.27 ± 0.14 kcal/mol, 4.11 ± 0.16 kcal/mol and 3.72 ± 0.15 kcal/mol, respectively.

For the sequence “SAGGKILIYPGSIEEAIEALKANPNTTVLVISPDGTLIEITVEELGPGPFKIDIKVIPLLPPLKPDEASAGG [r13_56_TrMRF]”, the “folding stability dG unfold” value amounted to 2.212 ± 0.021 kcal/mol in series [1], 1.97 ± 0.069 kcal/mol in series [2] and 1.6 ± 0.043 kcal/mol in series [3].

As to “SAGGKITAFVLVELPDGSVVERTYEFERLDDLLAFLEADPGPKLADLEIIPPEGSDDIIIPLVARVEPSAGG [r13_796_TrMRF]”, the “folding stability dG unfold” value in series [1] is 2.15 ± 0.053 kcal/mol; in series [2], 1.77 ± 0.1 kcal/mol; in series [3], 0.883 ± 0.041 kcal/mol.

Regarding “SAGGKITIEVTYNKETGEITIRITFNGKTIEIKIKVPGLSEEEVKKLAEELAKKLKEKYGIDKVEITSAGGS [r16_249_TrROS_Hall]”, the “folding stability dG unfold” value in series [1] stood at 4.4 ± 0.11 kcal/mol; in series [2], 4.36 ± 0.29 kcal/mol; in series [3] it was 4.36 ± 0.45 kcal/mol.

Turning to “SAGGKKEKIVEIKLLDMSYDPENKTVTFKFLVKLENGEEKVIELKISAEDFEKMSLEDILKAVKDFFESAGG [r13_512_TrMRF]”, the “folding stability dG unfold” value in series [1] was determined as 4.83 ± 0.09 kcal/mol; in series [2] it was 4.72 ± 0.15 kcal/mol; in series [3], 3.74 ± 0.16 kcal/mol.

For the sequence “SAGGKKEVILVIEIDLPESEEELLEEAERLAKELAELLGKEREVEVEVIEKDGKLIIVLRINGKEIVLSAGG [r13_845_TrROS_Hall]”, the “folding stability dG unfold” value in series [1] worked out at 2.68 ± 0.051 kcal/mol; in series [2], 2.52 ± 0.32 kcal/mol; in series [3], 2.78 ± 0.23 kcal/mol.

For the sequence “SAGGKKFKIKEITITYNPDADTVTMTVKLDDGTTVELTFNKETKKLTVKVINKDTGEEKEFEFTLPDSAGGS [r8_363_TrROS_Hall]”, the “folding stability dG unfold” value in series [1] turned out to be 4.9 ± 0.25 kcal/mol; in series [2], 4.77 ± 0.24 kcal/mol; in series [3], 3.1 ± 0.17 kcal/mol.

For “SAGGKKIEIKEENGSLVIKVDGYLVTIEPIDGKLVATVVKKDKKTKKWKIVETKILTLDEILELLKKSAGGS [r8_174_TrROS_Hall]”, the “folding stability dG unfold” value in series [1] was determined as 3.034 ± 0.026 kcal/mol; in series [2], 2.66 ± 0.099 kcal/mol; in series [3], 1.91 ± 0.057 kcal/mol.

With “SAGGKKIKVEVKIEIKIEKNPDGSYTIRIKITVKVTNENGEKFEVKVELEITLSEEELEKLKKLLEELSAGG [r13_412_TrROS_Hall]”, the “folding stability dG unfold” value was found to be 3.75 ± 0.46 kcal/mol in series [1], 3.5 ± 0.39 kcal/mol in series [2] and 3.07 ± 0.24 kcal/mol in series [3].

“SAGGKKIVIFIGPPEQMDRMQEQHPDEPVIPIPRDALQDPEPAKNLIKELQEKGKDVEIYLFKDFKPSAGGS [r8_376_TrROS]”: the “folding stability dG unfold” value is -0.287 ± 0.4 kcal/mol in series [1], -0.239 ± 0.17 kcal/mol in series [2] and -0.176 ± 0.31 kcal/mol in series [3].

In the case of “SAGGKKIVLFVGPPELVEELKKAYPDLPFVPIPVEVLENPEPAAEIIKELKEKGYEVVVYNFPDLKESAGGS [r8_376_TrMRF]”, the figures for the “folding stability dG unfold” value in series [1], in series [2] and in series [3] were 2.562 ± 0.021 kcal/mol, 2.21 ± 0.071 kcal/mol and 1.37 ± 0.057 kcal/mol, respectively.

Consider “SAGGKKKKIEIEIVVKKEDLEKIAEELAKKLEEAGYKVKIKKIEVEVYKNKDGKIVYVKVRIEVEVEPSAGG [r13_707_TrROS_Hall]”, for which the “folding stability dG unfold” value in series [1] is 4.82 ± 0.18 kcal/mol; in series [2] it was 4.65 ± 0.53 kcal/mol; in series [3] it was 3.05 ± 0.47 kcal/mol.

Turning to “SAGGKKKKIKPKEIKVRIIIEKDGKKIEIELSEEELEKIKKAPTLEEIIKELEKKGFKIVKIEIEKKSAGGS [r16_567_TrROS_Hall]”, the “folding stability dG unfold” value in series [1] came to 3.05 ± 0.059 kcal/mol; in series [2], 2.43 ± 0.21 kcal/mol; in series [3] it was 1.19 ± 0.073 kcal/mol.

Consider “SAGGKKKKKKKKKKKKKVKVRVRIVVENKNGEKKEIEIELKGLTLEELKKLAKELEKKGFKVKKIEIESAGG [r13_227_TrROS_Hall]”, for which the “folding stability dG unfold” value in series [1] came to 3.53 ± 0.16 kcal/mol; in series [2] it was 3.34 ± 0.39 kcal/mol; in series [3], 3.28 ± 0.3 kcal/mol.

On to “SAGGKKKKVIIVIEAPPGMSAEEIAAAIAEKLGLPKEEIKVERFKSVEEALAAAEKEGKEVIVIEVDSAGGS [r8_245_TrROS_Hall]”, for which the “folding stability dG unfold” value in series [1] stood at 2.56 ± 0.059 kcal/mol; in series [2], 2.41 ± 0.096 kcal/mol; in series [3], 2.06 ± 0.053 kcal/mol.

Take “SAGGKKKKVKKKKPVYRIKIKLKNGEEIEIEAKSKEEAEKAAKELLKKLFPEKKIDEIKIVEIEKLPPSAGG [r13_887_TrROS_Hall]”: the “folding stability dG unfold” value was determined as 2.69 ± 0.12 kcal/mol in series [1], 2.69 ± 0.16 kcal/mol in series [2] and 2.54 ± 0.061 kcal/mol in series [3].

Take “SAGGKKKKVVIKLPSTNKAVEAELVSVKKGKNKYYLEIKLPNGKKYKFPLEVIGDFKWDEGEGTLEVPSAGG [r13_211_TrMRF]”: the “folding stability dG unfold” value amounted to 2.98 ± 0.05 kcal/mol in series [1], 2.66 ± 0.11 kcal/mol in series [2] and 1.79 ± 0.047 kcal/mol in series [3].

As to “SAGGKKKLVEITIKVPPGMTVEELIAEIAKKLPPGAKIVKVEYDKETKEIKIIVYDEKTKKKIEIKFSAGGS [r16_250_TrROS_Hall]”, the entries for the “folding stability dG unfold” value in series [1], in series [2] and in series [3] were 1.51 ± 0.036 kcal/mol, 1.64 ± 0.14 kcal/mol and 1.81 ± 0.049 kcal/mol, respectively.

For “SAGGKKKTAEELAEELKKKLEELGFKVVKIEKLPDGTVLITFEDGYVIKFDVKTGKITIMPKEELEKLSAGG [r13_717_TrROS_Hall]”, the “folding stability dG unfold” value in series [1] was found to be 2.16 ± 0.029 kcal/mol; in series [2] it was 1.96 ± 0.079 kcal/mol; in series [3], 1.62 ± 0.11 kcal/mol.
